Test results taken from the supplement of paper PMC12042874.
± gives the uncertainty stated by the source.

Test: amyloid nucleation score (Sup35N fusion, yeast selection) (log enrichment); library NNK1; higher = more nucleation; inactive = no reads after selection
Outline: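 Sup35N was fused to peptides of 20 random codons and expressed in psi-negative yeast, which were induced with 100 μM copper sulfate for 24 hours and then grown on medium lacking adenine and uracil for 7 days at 30°C. Plasmid inserts from input and output were sequenced on Illumina. The nucleation score is the DiMSum log enrichment of output over input reads, centred on the mode score of non-aggregating sequences. Sequences with under 100 input reads were left out, and random libraries had three technical output replicates.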

Substance	amyloid nucleation score
MDALMCYIFFKFE	4.89 ± 0.064
MDIFDTLAWTF	0.632 ± 0.58
MEICNCKDYFKAYRRFSHGS	1.56 ± 0.27
MEKLGAPYRFREPGMFVRFF	-1.1 ± 0.62
MEVKISVRFQFVLI	-0.355 ± 0.6
MFCRVVRGGCGSSIGC	0.249 ± 0.79
MFLCNVIYCFFLTYIWLTFF	5.33 ± 0.11
MFQPFPFIHQVDQPFPKSVQ	0.51 ± 0.47
MFRYNCRRAIQIVFMYLWTP	0.779 ± 0.28
MFTIF	0.045 ± 0.3
MFVSDQINYCMSTVAVH	0.201 ± 0.27
MGEATGSGISADDVYVQGEY	4.26 ± 0.069
MGIHIFSGRSCTIFLLPSLY	-0.582 ± 1.2
MGIWSFDTVTRGAMTSVGDA	0.252 ± 0.62
MGLPVLVINNHTAKNGVTRA	0.711 ± 0.73
MGRRRAPRGGFILRYGCPCR	-0.039 ± 0.73
MGVYTCR	inactive
MHEGKRLITGIDWWYVGVCW	0.094 ± 0.9
MHITDGCGG	-0.456 ± 0.3
MHNIASC	0.629 ± 0.48
MHRYF	-0.286 ± 0.37
MHTEFFGGMAHTTLWDVMSP	-0.977 ± 0.77
MHWLDYSFELLDGQ	1.01 ± 0.75
MIAFYIVLLPVIRGYRSGCK	inactive
MIHEVTLY	0.359 ± 0.41
MILWPS	1.64 ± 0.16

Substance	amyloid nucleation score
MIMDVVKGFVFRSSINSKRY	3.27 ± 0.088
MINHSEPQHCMYV	0.466 ± 0.9
MISGPNFEVYRLAVINGRSW	0.848 ± 0.58
MITSDKIGSQWLQCRLKVAC	-0.43 ± 0.53
MITSR	1.11 ± 0.53
MIVGGNLEEIVNHCYFCVER	0.511 ± 0.24
MIVILTGLLSTNGNLS	1.64 ± 0.39
MKAVELSPLKYTCLAN	0.313 ± 0.74
MKFDYFRRC	-0.471 ± 0.5
MKFGGLSG	-0.171 ± 0.47
MLANSLFFT	-1.23 ± 1.6
MLCVGKA	-1.16 ± 0.64
MLEDNLRVTTWPY	-0.407 ± 0.39
MLFGC	-0.003 ± 0.41
MLFNTHHVYLSTM	0.987 ± 0.53
MLKGMQSDSLKLNGDVDPCV	0.175 ± 0.28
MLKILNSSFFDTIVYAYITC	3.6 ± 0.081
MLKQMSSLGREEIYVF	-0.314 ± 0.99
MLKRVVVLLRPSVRGRVDRV	-0.11 ± 0.28
MLLRRKNIAGGYMVLEVGLS	-0.1 ± 0.31
MLMLSGVF	-0.782 ± 0.53
MLRTSARSQRGNRGLAKMGF	-1.87 ± 2.7
MLSKIFAHYSWSQAVTRAWG	1.75 ± 0.58
MLSYQR	inactive
MLVCILSVFDKNPR	2.78 ± 0.11
MLVFNNFEPLFLFVSTWTCQ	7.11 ± 0.06

Substance	amyloid nucleation score
MMDNLVYQRYTCTF	0.448 ± 0.79
MMGASGFF	-0.14 ± 0.32
MMKSRLDPCDNDNFFGRVSH	-0.257 ± 0.85
MMLSGFDIIYGIALCPLHVQ	-0.14 ± 0.3
MMLSVCISKLTFLVIRDLLV	0.459 ± 0.23
MMPYQSWDESSSCEDTLKVT	0.453 ± 0.35
MMTACLFIIF	5.925 ± 0.057
MNFDNGDFYWFVTRIISITC	0.99 ± 0.19
MNGSNRSCLFFCIGCVMPAW	7.5 ± 0.081
MNKIITRTRSMATSDSTRHS	0.052 ± 0.67
MNKLYITA	0.035 ± 0.84
MNKWSG	1.4 ± 0.63
MNMSKRFLRKLCERSRMPNR	0.21 ± 0.61
MNNKDDAVYVEHL	0.072 ± 0.23
MNPGG	-0.026 ± 0.21
MNQLTFRTNRPPSTASVFAR	1.01 ± 0.61
MNRYFFYLIRVFLRGYH	-0.094 ± 0.64
MNYFVMSHSNKLDASLCWRR	1.52 ± 0.25
MNYRQLL	0.177 ± 0.7
MPCRARVRDNSLSWTEHTNC	-0.248 ± 0.62
MPGRNLRLNKVR	0.273 ± 0.4
MQFNVSWRNGWSRWIGVSDV	6.519 ± 0.054
MQIMRRIMWYDNSKVSF	-0.177 ± 0.2
MRFKRRSGFGELGMFAFTPL	-0.628 ± 0.5
MRGYPENKLSRSCQCRMRRY	-0.213 ± 0.74
MRLERTNRGSAPWTLYYNQR	1.09 ± 0.17

Substance	amyloid nucleation score
MRLIVNSFTVGYEPRISWYV	1.22 ± 0.24
MRSGTVYMVYLVHLKSFKWL	-0.265 ± 0.68
MRWIVWYVIS	-0.859 ± 1.4
MSALARVMLSMRYRIGT	-0.395 ± 1.1
MSDCPACGCSCHRSKLISGF	-0.414 ± 0.5
MSDKSTWYC	0.157 ± 0.61
MSEVTMGLRTMFVIFNR	2.79 ± 0.1
MSFDGVEYRTCNVYVSVTWG	-0.133 ± 0.77
MSFSCWFLS	0.445 ± 0.88
MSGAESYLHLDLCRVTGIAS	-0.24 ± 0.35
MSHFCLSLGAAASMNPLQLG	-0.309 ± 1.1
MSLMSPAYNATNYWAVWRHK	-0.029 ± 0.27
MSRFLTLMHFERNFV	0.566 ± 0.42
MSTVFADLR	-0.292 ± 0.29
MSYRD	-0.995 ± 1.7
MTYITTGSSKYEGYKFTCMT	0.502 ± 0.51
MVAMVNT	-0.087 ± 0.28
MVFFTCSEMDVYMWRGYFNY	-0.727 ± 0.28
MVGNIYSSPFYPRYSLTNGT	-0.161 ± 0.83
MVGRVARRVTMSVCSAVSGV	-0.237 ± 0.45
MVMFHSSFLIDDTWICWNPF	0.255 ± 0.47
MVSLDWTSQLGR	2.18 ± 0.54
MVSNAGDIPMRRLESLRLLR	0.748 ± 0.53
MVSPPLNTSIYLIPCSSLCD	-0.407 ± 0.25
MVVVLLVD	-0.438 ± 0.9
MVVWWRHKVLKGHWL	-0.189 ± 0.61

Substance	amyloid nucleation score
MWVFKTFCRRQRASVPNSLG	0.034 ± 0.27
MWVNLVWTAFLYKSILCRVF	0.38 ± 1.2
MWWCGSHSFSFYFRLRSDWR	0.829 ± 1
MYGLVLCIYVSHVVR	1.54 ± 0.43
MYIKRTGQTGWAVGGSRTPR	1.11 ± 0.65
MYISYSLNKTPIVFAPCTVH	-0.018 ± 0.48
MYQVHTVSTVKIEMAYHAQG	1.67 ± 0.26
MYRDDAGFEGMF	1.19 ± 0.61
MYRQTEGLVRFKGRGPFKVE	0.355 ± 0.4
MYSISCIVNY	2.56 ± 0.15
MYTSDHNSGVASMCIVVGFF	3.76 ± 0.08
NACIPQVFCGSLLKFALQLW	3.28 ± 0.088
NALYSWAPLDCIMPRIVS	0.299 ± 0.47
NANINFSNTMQADVL	0.116 ± 0.31
NARVILCVVFILGAMTRLGL	-0.549 ± 0.65
NASSLVRTDCHSMRKESSMR	0.052 ± 0.4
NASYVNIKYRNRGN	4.53 ± 0.082
NCCCEAKTWRLIDCIITIVI	0.711 ± 0.13
NCDLECQSLRAYGLSCKKSR	-0.22 ± 0.43
NCERVTDYELIRGSSILKVV	0.311 ± 0.73
NCFIKDAMVMSSRMYSGNMI	inactive
NCFRFCRQLLTAEDDVMCLP	0.117 ± 0.81
NCGNMAATSFVNEIYL	inactive
NCGSVFFYGPIVGFHRLGLV	0.967 ± 0.44
NCKFEKSLKPPHGPYNGNQY	0.292 ± 0.42
